Reference: US7629135B2, “Toll-like receptor agonists and antagonists and methods of use thereof” (The Board of Trustees of the University of Illinois, priority 2006, dated 2009)

Test system: C57BL/6 mice
Assay: Plasma G-CSF in SAA-injected mice (ELISA)
Assay type: in vivo, mouse
Procedure: SAA stimulates neutrophilia through G-CSF: To investigate whether SAA-induced G-CSF secretion contributes to neutrophilia, in vivo studies were conducted with daily administration of SAA in mice. C57BL/6 mice were injected subcutaneously (s.c.) with a daily dose of 120 μg SAA/kg body weight (˜3 μg of SAA each mouse) for 7 consecutive days. At different time points after the injection was initiated, blood neutrophil numbers were determined and the results were compared to neutrophil numbers prior to SAA administration. […] To establish a causal relationship between SAA-induced G-CSF production and neutrophilia in mice, wild-type C57BL/6 mice wre compared with csf3^−/− mice for changes in neutrophil count.
Measurement of G-CSF expression: To measure the secreted G-CSF from human monocytes and mouse macrophages in vitro, cells were placed in serum-free DMEM medium and stimulated with the indicated ligands. Cell-free supernatants were collected by centrifugation at 1,000×g for 30 sec and assayed for human or mouse G-CSF using ELISA. Human PBMC were used as 2×10^6 cells/ml/sample, and mouse BMDM were seeded at 10^6 cells/ml and used as 0.5 ml/sample. To measure mouse plasma G-CSF, blood samples were collected and centrifuged at 1,000-2,000×g for 10 min at 4° C. Plasma samples were appropriately diluted and then checked for G-CSF concentration using ELISA. […] Real-time quantitative PCR was performed on a ABI PRISM 7000 Sequence Detection System (Applied Biosystems) as described previously (He et al., 2006). All data were analyzed with the ABI PRISM 7000 SDS software (version 1.1). Relative level of mRNA for G-CSF was determined by normalizing with β-actin mRNA level. […]
SAA-induced neutrophilia: For analysis of SAA-induced neutrophil increase, SAA was injected subcutaneously into both G-CSF deficient (csf3^−/−) (n=5) and csf3^+/+ (n=5), age- and sex-matched littermates (8-9 weeks, male), at doses of 120 μg/kg/d in 200 μl PBS. […] Total white blood cell (WBC) count and WBC differential count were determined using a Hemavet 950FS multispecies hematology analyzer (Drew Scientific).

B1: SAA: Recombinant human SAA purchased from PeproTech; major acute-phase protein of 104 amino acids (protein, UniProt P0DJI8 19-122, looked up)
Serum amyloid A-1 protein: RSFFSFLGEAFDGARDMWRAYSDMREANYIGSDKYFHARGNYDAAKRGPGGAWAAEVITDARENIQRFFGHGAEDSLADQAANEWGRSGKDPNHFRPAGLPEKY
Q: Which “plasma G-CSF level” value (C57BL/6 mice, SAA 120 μg/kg s.c. daily, end of 7 days) does the source give for B1 here?
A: Its value is “significantly elevated G-CSF level”.

Q: And the “plasma G-CSF in tlr2−/− mice vs wild-type” value (SAA s.c. up to 7 days, 168 h)?
A: Its value is “significantly less G-CSF”.

Q: What about the “plasma concentration of G-CSF, maximum” value (SAA-injected C57BL/6 mice, 168 h) of the same molecule?
A: Its value is 97 pg/mL.
